B1: C22orf31 (parent)
chain: YSLELGKAIKQKLWEALCSQGAIS
B2: PSD2 (parent)
chain: LTHFSRRYCQCNPDDSTSEDGIHT

Variants of: B1
Test: protein stability index of a GFP-peptide fusion (GPS, HEK-293T) (PSI 1-6); higher = more stable
Conditions: c terminus: a fixed tail appended
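Further: lentivirally expressed fusions sorted by FACS into six bins by GFP to DsRed ratio, PSI derived from sequencing read proportions per bin multiplied by bin number.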

Protein stability index, by site and new letter:
A8: I 2.24 | T 1.97 | Q 1.64 | Y 2.97 | E 2.17 | S 2.19 | V 2.75 | R 2.51 | F 1.7 | G 1.63 | K 1.61 | N 2.57 | P 1.84 | W 1.81 | M 2.31 | D 1.76 | H 2.73
Q11: G 3.21 | Y 1.92 | A 2.47 | F 3.62 | P 1.36 | S 2.01 | R 3.36 | I 1.75 | W 3.82
L13: R 2.05 | D 2.37 | S 2.24 | T 1.88 | I 2.33 | A 1.41 | H 2.48 | W 1.94 | Q 1.92 | M 2.17 | C 1.35 | P 2.04 | K 1.47 | G 1.88 | Y 1.56 | N 2.63 | F 1.13 | E 3.05
S2: M 2.38 | A 1.79 | R 2.42 | E 1.59 | H 2.43 | P 2.3 | Y 3.28 | K 2.68 | G 2.35 | Q 1.57 | V 1.12 | T 2.86 | D 1.56 | N 2.79 | C 2.15
K7: C 1.73 | Q 2 | I 3.6 | D 2.63 | P 2.68 | G 1.24 | T 2.46 | V 2.31 | E 2.34 | R 1.6 | Y 2.1
L17: W 1.19 | N 1.86 | A 1.25 | V 3.22 | Q 1.87 | I 2.85 | F 2.17 | K 2.11 | P 2.08 | R 2.25 | D 2.62 | S 2.41 | C 3.17 | G 2.05 | H 1.47 | M 2.88 | E 1.69 | T 2.26
K12: I 3.58 | D 1.56 | H 1.98 | Y 1.93 | L 2.66 | A 3.38 | N 1.93 | V 2.49 | P 1.51 | E 1.85 | R 1.53 | T 2.87 | Q 2.26 | S 1.39 | G 1.07 | W 2.25 | C 2.03 | F 2.11
I9: G 1.84 | E 2.97 | M 1.07 | S 1.97 | H 2.07 | V 2.26 | Q 1.94 | T 2.38 | F 2.02 | R 1.87 | A 1.35 | D 2.39 | N 2.07 | P 1.99 | K 2.24 | Y 3.02 | C 1.79
A16: Y 1.89 | R 2.1 | C 2.24 | T 3.32 | D 1.98 | L 1.77 | G 2.26 | S 2.54 | Q 1.89 | E 1.74 | W 2.4 | M 2.69 | N 1.29 | H 1.83 | P 2.3
K10: Y 1.9 | F 3.08 | R 1.15 | C 2.31 | P 2.27 | A 1.52 | H 1.95 | D 1.63 | N 2.54 | E 2.55 | M 2.22 | I 2.95 | Q 2.64
Y1: R 2.88 | F 2.8 | L 2.91 | I 3.2 | K 3.44 | V 2.56 | Q 2.81 | D 1.87 | H 2.79 | T 3.1 | P 2.12 | N 2.16 | C 2.58 | A 1.69 | E 1.22
L5: K 2.64 | I 3.07 | P 1.62 | N 1.59 | S 1.5 | Y 1.86 | F 4.05 | A 1.83 | M 2.14 | Q 1.35 | D 2.11 | W 1.96 | G 1.82 | E 2.21 | H 2.19 | T 1.75
G6: S 1.25 | K 1.73 | T 1.86 | R 2.73 | E 2.03 | H 1.59 | P 1.36 | L 2.97 | A 1.94 | C 2.16 | N 1.91 | D 1.9 | W 3.02 | Q 1.98 | F 2.28 | Y 2.27
E4: M 2.42 | K 3.04 | D 3.44 | Y 3.11 | C 2.69 | S 1.88 | V 3.23 | G 1.56 | I 3.45 | N 3.57 | L 2.69 | Q 3.4 | H 2.7 | F 3.85 | A 2.96 | W 3.56
L3: A 2.39 | M 2.18 | T 1.89 | N 2.19 | E 2.53 | I 1.79 | F 2.43 | H 1.66 | D 1.38 | Y 2.44 | S 1.75 | P 1.64 | V 3.15 | G 1.43 | K 2.03
W14: I 3.71 | D 3.34 | L 3.37 | T 1.98 | E 2.52 | A 1.06 | C 1.62 | K 2 | Q 1.83 | V 3.18 | S 1.85 | G 3.06 | P 3.34 | Y 1.78 | N 2.21 | H 1.34 | M 2.24
E15: F 3 | Q 1.41 | P 2.25 | K 2.73 | S 2.19 | R 3.18 | W 1.9 | T 1.64 | N 3 | H 1.65 | G 1.31 | C 3

Variants of: B2
Test: as above
Conditions: c terminus: a fixed tail appended

Protein stability index: each site, then its substitutions
T2: W 2.28 | C 2.51 | R 2.63
Q10: L 2.63
I22: S 3.87 | N 3.98 | M 3.49 | V 3.71
F4: D 3.57 | L 3.5 | M 3.49 | W 3.31 | Y 2.85
S18: Q 3.43 | K 2.88
L1: F 2.72 | Q 3.53 | K 3.49
R7: G 2.93
G21: I 2.63 | N 3.33 | M 2.86 | S 3.64 | Y 2.68 | P 3.57
D14: S 2.49
S16: Q 3.82 | M 2.64 | N 3.06 | H 2.95
D15: W 2.14 | Y 3.23 | C 2.91 | Q 2.35 | N 2.41
E19: G 3.03 | S 2.44 | F 1.94
C9: T 4.12
H3: R 3.62 | E 3.61 | T 3.28 | L 2.96
Y8: N 4.74 | A 3.75 | R 3.7 | Q 3.98 | S 3.93 | T 4.18
D20: N 2.5 | F 2.69 | K 2.74
H23: G 3.69 | I 3.21 | F 2.01
S5: F 2.18 | E 3.97 | C 2.71
C11: V 4.5 | Y 3.74 | K 4.52 | L 3.65
T17: S 2.78 | R 2.78 | N 3.6 | A 3.02
N12: C 2.82 | G 2.83
R6: G 4.2 | E 4.83 | K 3.21
T24: H 2.5 | W 2.26 | P 3.82
P13: V 3.11 | A 2.83

— the supplement of paper PMC10567573
